Source: patent US20230036928A1 (Sanofi, published 2023)

Target: T1, TGF-β2
T1 sequence (P61812 303-414, species assumed, looked up): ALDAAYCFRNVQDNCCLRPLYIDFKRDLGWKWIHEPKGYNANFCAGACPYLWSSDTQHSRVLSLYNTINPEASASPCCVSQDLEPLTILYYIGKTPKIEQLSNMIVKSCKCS
Assay: cell-based or functional assay

relative potency (EC50 of the reference divided by EC50 of the test sample) in mink lung cell proliferation assay with PrestoBlue read-out: ~1 ratio (relative potency)
B1: Ab1 (antibody, human IgG4 S228P, kappa, V domains shown)
VH: QVQLVQSGAEVKKPGSSVKVSCKASGYTFSSNVISWVRQAPGQGLEWMGGVIPIVDIANYAQRFKGRVTITADESTSTTYMELSSLRSEDTAVYYCASTLGLVLDAMDYWGQGTLVTVSS
VL: ETVLTQSPGTLSLSPGERATLSCRASQSLGSSYLAWYQQKPGQAPRLLIYGASSRAPGIPDRFSGSGSGTDFTLTISRLEPEDFAVYYCQQYADSPITFGQGTRLEIKR
